Data from patent US20220220199A1.

Molecular target: LAG-3 expressed at the surface of Jurkat LAG-3+/NFAT-luc2 effector cells (Promega) (UniProt P18627)
Experiment: cell-based or functional assay

LAG-3 expressed at the surface of Jurkat LAG-3+/NFAT-luc2 effector cells (Promega), sequence (P18627 23-525 limits assumed): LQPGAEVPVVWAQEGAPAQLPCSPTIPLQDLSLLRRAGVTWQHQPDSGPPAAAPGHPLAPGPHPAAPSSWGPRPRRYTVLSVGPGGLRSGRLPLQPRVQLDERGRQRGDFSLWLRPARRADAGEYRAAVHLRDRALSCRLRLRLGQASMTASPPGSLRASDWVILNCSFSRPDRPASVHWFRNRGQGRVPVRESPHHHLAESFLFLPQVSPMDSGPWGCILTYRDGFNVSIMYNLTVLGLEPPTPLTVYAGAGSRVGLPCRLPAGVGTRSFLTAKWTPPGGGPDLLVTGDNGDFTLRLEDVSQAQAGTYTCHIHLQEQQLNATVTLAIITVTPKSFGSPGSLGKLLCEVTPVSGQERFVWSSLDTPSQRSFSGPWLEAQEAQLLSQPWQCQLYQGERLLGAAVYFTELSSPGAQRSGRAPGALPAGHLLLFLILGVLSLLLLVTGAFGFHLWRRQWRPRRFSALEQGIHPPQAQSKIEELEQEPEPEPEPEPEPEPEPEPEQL

## IMP761 (humanized 13E2-human IgG4 Fc antibody)
  inhibition of luciferase expression (RLU) under an NFAT response element in Jurkat LAG-3+/NFAT-luc2 effector cells stimulated with anti-CD3 (OKT3, 3 ng/ml): 37 ng/mL
